What was measured:
HIS-tagged α4β1 integrin [1] = target: T1, HIS-tagged α4β1 integrin (UniProt P13612 34-977; P05556 21-728, limits assumed); experiment: VCAM-1 competitive ELISA; coated VCAM-1 as competitor, HIS-tagged α4β1 integrin in solution; highest of 26 batches
T1 construct: Soluble, HIS-tagged
Description: (§1) Alternatively, one can also measure VCAM-1 competitive binding by ELISA. The aim of this assay is to test the ability of natalizumab to inhibit interaction of α₄β₁ integrin with its cognate receptor VCAM-1 protein in a dose-dependent manner. Constant amount of the coated VCAM-1 protein is incubated with serial dilutions of natalizumab in the presence of HIS-tagged α₄β₁ integrin. Solid-phase associated VCAM-1 and soluble natalizumab now compete for binding to α₄β₁, integrin. The higher the natalizumab concentration the more α4β1 integrin is inhibited from binding to VCAM-1. The highest signal result is observed when no natalizumab is present. Bound HIS-tagged α₄β₁ integrin is subsequently detected with a biotinylated anti-HIS-tag antibody, POD-conjugated Streptavidin and a TMB-substrate reaction at the end of the assay. Data are analyzed with 4PL fitting model. Final result is expressed as a Relative Potency (REP) of tested sample in relation to reference standard. The method variability was determined at the level of 7% coefficient variation (CV) of intermediate precision within the qualification exercise. Additionally accuracy, linearity and specificity were tested.

α4β7 integrin [2] = target: T2, α4β7 integrin (UniProt P13612 34-970; P26010 20-723, limits assumed); experiment: MadCAM-1 competitive ELISA; coated α4β7 integrin, Fc-tagged MadCAM-1 as competitor; highest of 24 batches
Description: (§2) In still another alternative one can measure MadCAM-1 competitive binding by ELISA. The aim of this assay is to test the ability of natalizumab to inhibit interaction of α₄β₇ integrin with its cognate receptor—MadCAM-1 protein in a dose-dependent manner. Constant amount of the coated α₄β₇ integrin is incubated with serial dilutions of natalizumab in the presence of Fc-tagged MadCAM-1 receptor. Natalizumab and MadCAM-1 receptor now compete for binding to solid-phase associated α₄β₇ integrin. The higher the natalizumab concentration the more MadCAM-1 is inhibited from binding to α₄β₇ integrin. The lowest signal result is observed when no natalizumab is present. […] is subsequently detected with a POD-conjugated anti-human IgG antibody and a TMB-substrate reaction at the end of the assay. Data are analyzed with 4PL fitting model. Final result is expressed as a Relative Potency (REP) of tested sample in relation to reference standard. The method variability was determined at the level of 8% coefficient variation (CV) of intermediate precision within the qualification exercise. Additionally accuracy, linearity and specificity were tested.

HIS-tagged α4β1 integrin [3] = target: T1, HIS-tagged α4β1 integrin; experiment: VCAM-1 competitive ELISA; coated VCAM-1 as competitor, HIS-tagged α4β1 integrin in solution; 26 batches, n=3
Description: as §1

α4β7 integrin [4] = target: T2, α4β7 integrin; experiment: MadCAM-1 competitive ELISA; coated α4β7 integrin, Fc-tagged MadCAM-1 as competitor, bound natalizumab detected; 24 batches, n=3
Description: as §2

HIS-tagged α4β1 integrin [5] = target: T1, HIS-tagged α4β1 integrin; experiment: VCAM-1 competitive ELISA; coated VCAM-1 as competitor, HIS-tagged α4β1 integrin in solution; lowest of 26 batches
Description: as §1

α4β7 integrin [6] = target: T2, α4β7 integrin; experiment: MadCAM-1 competitive ELISA; coated α4β7 integrin, Fc-tagged MadCAM-1 as competitor; lowest of 24 batches
Description: as §2

Relative Potency (REP), max (HIS-tagged α4β1 integrin [1]): 1.2 REP (relative to reference standard)
Relative Potency (REP), max (α4β7 integrin [2]): 1.17 REP (relative to reference standard)
Relative Potency (REP), average (HIS-tagged α4β1 integrin [3]): 1.04 REP (relative to reference standard)
Relative Potency (REP), average (α4β7 integrin [4]): 0.995 REP (relative to reference standard)
Relative Potency (REP), min (HIS-tagged α4β1 integrin [5]): 0.916 REP (relative to reference standard)
Relative Potency (REP), min (α4β7 integrin [6]): 0.83 REP (relative to reference standard)
B1: Natalizumab reference product (Referent batches) (antibody, human IgG4, kappa, V domains shown)
VH: QVQLVQSGAEVKKPGASVKVSCKASGFNIKDTYIHWVRQAPGQRLEWMGRIDPANGYTKYDPKFQGRVTITADTSASTAYMELSSLRSEDTAVYYCAREGYYGNYGVYAMDYWGQGTLVTVSS
VL: DIQMTQSPSSLSASVGDRVTITCKTSQDINKYMAWYQQTPGKAPRLLIHYTSALQPGIPSRFSGSGSGRDYTFTISSLQPEDIATYYCLQYDNLWTFGQGTKVEIKR
